Key:
FITC-casein [1] = assay: cell-based or functional assay
FITC-casein [2] = assay: fluorescence polarization, 6 nM FITC-casein with 0-5 uM Hsp104, 2 mM ATPgS, 25 C

Km of FITC-casein degradation (translocation into ClpP), initial rates against FITC-casein concentration (FITC-casein [1]) [µM] | Kd (FITC-casein [2]) [µM] | Substance
1.29 |  | HAPA503V (from UniProt P31539 1-908)
2.88 |  | HAPWT (from UniProt P31539 1-908)
 | 0.08 | Hsp104A503V (from UniProt P31539 1-908)
 | 0.065 | Hsp104WT (from UniProt P31539 1-908)
